Experimental data published in paper PMC7354924, “Repulsive guidance molecules lock growth differentiation factor 5 in an inhibitory complex” (Proceedings of the National Academy of Sciences of the …, 2020).
Residue numbers refer to the chain shown, from its start.

B1: N-terminal domain of human RGMB (RGMBND, Gln53-His136) (domain or fragment)
chain: ETGQCRIQKCTTDFVSLTSHLNSAVDGFDSEFCKALRAYAGCTQRTSKACRGNLVYHSAVLGISDLMSQRNCSKDGPTSSTNPEVTHGTKHHHHHH
B2: RGMBND His106Asn (domain or fragment)
chain: B1 chain with H57N
B3: N-terminal domain of human RGMB (RGMBND, Gln53–His136) (domain or fragment)
chain: B1 chain
modifications: N-linked glycan on Asn120 (cut down to one N-acetylglucosamine for crystallization; kept fully glycosylated for binding assays); methylated for crystal form 2
B4: RGMBND His106Leu (domain or fragment)
chain: B1 chain with H57L
B5: N-terminal domain of human RGMA (RGMAND, Ser46–Ser139) (domain or fragment)
chain: ETGSPCKILKCNSEFWSATSGSHAPASDDTPEFCAALRSYALCTRRTARTCRGDLAYHSAVHGIEDLMSQHNCSKDGPTSQPRLRTLPPAGDSQERS
modifications: Asn-linked glycans cut down to one N-acetylglucosamine for crystallization; kept fully glycosylated for binding assays
notes: Glu-Thr-Gly from the pHLsec vector, after the N-terminal secretion signal; human RGMA, N-terminal domain, residues Ser46–Ser139 of UniProtKB Q96B86-1; source: HEK-293T, transient transfection, secreted, purified (IMAC, SEC)
B6: RGMBND Gly101Arg (domain or fragment)
chain: QCRIQKCTTDFVSLTSHLNSAVDGFDSEFCKALRAYAGCTQRTSKACRRNLVYHSAVLGISDLMSQRNCSKDGPTSSTNPEVTH
B7: N-terminal domain of human RGMC (RGMCND, Gln36–Pro145) (domain or fragment)
chain: ETGQCKILRCNAEYVSSTLSLRGGGSSGALRGGGGGGRGGGVGSGGLCRALRSYALCTRRTARTCRGDLAFHSAVHGIEDLMIQHNCSRQGPTAPPPPRGPALPGAGSGLPAP
modifications: Asn-linked glycans cut down to one N-acetylglucosamine for crystallization; kept fully glycosylated for binding assays
notes: Glu-Thr-Gly from the pHLsec vector, after the N-terminal secretion signal; human RGMC (Hemojuvelin), N-terminal domain, residues Gln36–Pro145 of UniProtKB Q6ZVN8-1; also called Hemojuvelin; HFE2; source: HEK-293T, transient transfection, secreted, purified (IMAC, SEC)
B8: RGMCND Gly99Arg (domain or fragment, human)
chain: B7 chain with G67R
notes: Glu-Thr-Gly from the pHLsec vector, after the N-terminal secretion signal; human RGMC, N-terminal domain, residues Gln36–Pro145 of UniProtKB Q6ZVN8-1, with Gly99Arg; Made by site-directed mutagenesis of the RGMCND construct; also called RGMC Gly99Arg; juvenile hemochromatosis-causing mutation; source: HEK-293T, transient transfection, secreted, purified (IMAC, SEC in SPR running buffer)
B9: soluble RGMC extracellular domain (RGMCECD) for the ProteOn SPR studies (domain or fragment, human, UniProt Q6ZVN8 36-400, looked up)
chain: QCKILRCNAEYVSSTLSLRGGGSSGALRGGGGGGRGGGVGSGGLCRALRSYALCTRRTARTCRGDLAFHSAVHGIEDLMIQHNCSRQGPTAPPPPRGPALPGAGSGLPAPDPCDYEGRFSRLHGRPPGFLHCASFGDPHVRSFHHHFHTCRVQGAWPLLDNDFLFVQATSSPMALGANATATRKLTIIFKNMQECIDQKVYQAEVDNLPVAFEDGSINGGDRPGGSSLSIQTANPGNHVEIQAAYIGTTIIIRQTAGQLSFSIKVAEDVAMAFSAEQDLQLCVGGCPPSQRLSRSERNRRGAITIDTARRLCKEGLPVEDAYFHSCVFDVLISGDPNFTVAAQAALEDARAFLPDLEKLHLFPSD
B10: extracellular domain of human RGMB (RGMBECD, Gln53–Ser411) (domain or fragment)
chain: ETGQCRIQKCTTDFVSLTSHLNSAVDGFDSEFCKALRAYAGCTQRTSKACRGNLVYHSAVLGISDLMSQRNCSKDGPTSSTNPEVTHDPCNYHSHAGAREHRRGDQNPPSYLFCGLFGDPHLRTFKDNFQTCKVEGAWPLIDNNYLSVQVTNVPVVPGSSATATNKITIIFKAHHGCTDQKVYQAVTDDLPAAFVDGTTSGGDSDAKSLRIVERESGHYVEMHARYIGTTVFVRQVGRYLTLAIRMPEDLAMSYEESQDLQLCVNGCPLSERIDDGQGQVSAILGHSLPRTSLVQAWPGYTLETANTQCHEKMPVKDIYFQSCVFDLLTTGDANFTAAAHSALEDVEALHPRKERWHIFPSSGTKHHHHHH
modifications: Asn-linked glycans cut down to one N-acetylglucosamine for crystallization

Experiments:
[1] = target: T1, growth differentiation factor 5 (GDF5), wild type (human, UniProt P43026 28-501); experiment: SPR; Biacore T200, 25 °C; GDF5 amine-coupled to a CM5 chip (830, 970 or 1370 RU); RGMBND variants or BSA as analytes; 0.5 M NaCl, 20 mM HEPES pH 7.4, 0.05% (v/v) Tween 20; Kd from the dose-dependency of equilibrium binding, 1:1 Langmuir isotherm; conditions: both partners purified
T1 construct: GDF5, human, UniProt P43026; Disulfide-linked dimer without glycans; also called BMP14; CDMP1
T1 sequence (looked up): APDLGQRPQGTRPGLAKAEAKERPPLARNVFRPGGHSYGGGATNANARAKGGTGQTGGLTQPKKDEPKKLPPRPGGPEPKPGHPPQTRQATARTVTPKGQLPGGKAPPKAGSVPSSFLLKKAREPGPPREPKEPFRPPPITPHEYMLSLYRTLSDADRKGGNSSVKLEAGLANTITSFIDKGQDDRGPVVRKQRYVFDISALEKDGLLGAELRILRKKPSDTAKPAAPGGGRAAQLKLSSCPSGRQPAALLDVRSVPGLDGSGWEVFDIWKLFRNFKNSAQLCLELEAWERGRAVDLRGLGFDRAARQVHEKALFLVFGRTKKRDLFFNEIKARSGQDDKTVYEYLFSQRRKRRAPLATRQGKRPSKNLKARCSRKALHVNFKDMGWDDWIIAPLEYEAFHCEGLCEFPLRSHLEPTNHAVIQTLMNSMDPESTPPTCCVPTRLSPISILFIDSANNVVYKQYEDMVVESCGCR

[2] = target: T2, growth differentiation factor 5 (GDF5), wild type (UniProt P43026 382-501); experiment: SEC-MALS; RGMBND–GDF5 complex, 1 mg/mL, Superdex 200 HR 10/30, 0.5 M NaCl, 20 mM Hepes pH 7.5, 21 °C; conditions: both partners purified
T2 construct: GDF5, disulfide-linked dimer; also called wild-type GDF5
T2 sequence (looked up): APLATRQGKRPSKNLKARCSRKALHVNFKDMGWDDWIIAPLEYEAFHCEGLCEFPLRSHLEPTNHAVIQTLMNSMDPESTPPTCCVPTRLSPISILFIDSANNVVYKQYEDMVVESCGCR

[3] = target: T3, GDF5 variant Tyr487Lys/Gln489Asp (UniProt P43026 28-501, Tyr487Lys | Gln489Asp); experiment: SEC-MALS; RGMBND–GDF5(Tyr487Lys/Gln489Asp)–ActR2bECD complex, 1 mg/mL, Superdex 200 HR 10/30, 0.5 M NaCl, 20 mM Hepes pH 7.4, 21 °C; conditions: both partners purified
T3 construct: GDF5 with Tyr487Lys and Gln489Asp
T3 sequence (looked up): T1 sequence (looked up) with Y460K, Q462D

[4] = target: T2, growth differentiation factor 5 (GDF5), …; experiment: SPR; Biacore T200, 25 °C; GDF5 and BMP2 covalently linked to a CM5 chip by primary amine coupling, RGMs as analytes; 0.5 M NaCl, 20 mM Hepes pH 7.4, 0.05% Tween 20; equilibrium binding, 1:1 Langmuir isotherm; apparent affinity; conditions: both partners purified
[5] = target: T4, bone morphogenetic protein 2 (BMP2) (UniProt P12643 283-396); experiment: as above; conditions: both partners purified
T4 construct: BMP2, dimeric ligand
T4 sequence (P12643 283-396): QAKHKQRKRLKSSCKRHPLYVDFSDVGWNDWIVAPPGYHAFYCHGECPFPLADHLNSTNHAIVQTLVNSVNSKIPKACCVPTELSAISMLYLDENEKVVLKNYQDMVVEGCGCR

[6] = target: T4, bone morphogenetic protein 2 (BMP2); experiment: cell-based or functional assay
[7] = target: T2, growth differentiation factor 5 (GDF5), …; experiment: cell-based or functional assay

Binder | Kd [1] | Kd [4] | further results
B1 | 1.8 µM | – | –
B2 | > 150 µM | – | –
B3 | – | 2.7 µM | stoichiometry N [2]: 2 RGMB per disulfide-linked GDF5 dimer (2:2 by chains); stoichiometry N [3]: 2 RGMBND per GDF5 dimer (2:2:2 by chains); Kd [5]: 20.1 µM
B4 | > 200 µM | – | –
B5 | – | 16.7 µM | –
B6 | – | > 150 µM | –
B7 | – | 3.9 µM | –
B8 | – | > 20 µM | –
B9 | – | – | BMP2 (3 nM) BMP-responsive luciferase reporter in LLC-PK1 cells expressing full-length membrane-anchored RGMC [6]: ~3 fold
B10 | – | 8.8 µM | GDF5 (30 nM) BMP-responsive luciferase reporter in LLC-PK1 cells expressing full-length membrane-anchored RGMB [7]: ~3 fold
